Reference: the DeepSol protein solubility set

assay: soluble on expression in E. coli; label from the status in PepcDB or PDB records

Sequence	soluble on expression in E. coli
MTVDNFRLQVLANHCTAAAEAMGYTLMRTAYSTFVKETEDFSAQLMTPAGKTFASPKTFGATWYTGLDYGRVIAMFDDYREGDIYLTNDPYSGFVATHTPDMHVWKPVFRDGRLVCFVGSHIHNTDMGGAVPASLSRTLTEVHQEGLRIPPMLLARDGVIDEKVLRIMEVNVRMPEQNRGDLNAQIAALNVGERKVHEIIDRFGVDEFMQGAEAILDYAEQQTRALIREIPDGEYRFAEYADEDTVGGYPCRIQITLRVRGDELELDFTGSDPQVASSLNVPTGGDGHHSVITVGLIYVMHTLAPRNVLNAGSVRPCRAVLPEGTVVNPQAPAAVGMRSLMAAVIQACTFGVFSRAMPDRLPACPAGGSTLLNVKTATREGRQVLSSIGPCGGGAGGGPEHDGVEGCGANNAFLKNTPVEINEAEVPIEIIRYGLVPDTGGAGRQRGGNAATMEFRLLAPNGVVTARNRNRSELAAWGVMGGKAGANSRFIRNPDSDAPEELRNSDLVNCAPGDVIRLQGPAGGGYGHPYERPIEQVVED	not soluble
MTVGGMQPVSIMGKHLNNFERLSILEDYLSGSDSKVAIEQKYGLSHGLIRSWLSKFGLEDKVHPVPMKVSQSPQSELPLNEKEELEQLRKENRVLKSRLKREELGHQAYKLLVELAEETYGIQIRKNSEAK	not soluble
MTVGMSGFTRAGEAKAVPLALAERAKTNPMKITLMTGASLGNDLDKTMVEAGMLARRMPFQSDPALRKAINDGRVMFIDQHLSETVEQLRGGQIHGVDIAIVEAVAITAEGGIVPTTSVGNSASFAILADKVIVEINLSQPEVLEGLHDIFIPAKRPTRMPIPVVATDSRVGLPFIPVPPEKIAAIVLSDKSDSFSTVLPPDDETKAIAGHLTEFLLNEVRHGRMTHELQPLQAGIGTIANAVMHGFIDTPFHDLKMYSEVLQDSTFELFDAGKLTFASGSSITLSSAMNEQVMPRLSEYKSRLILRPQEVSNHPEVIRRLGIIGINTALEFDIYGNVNSTHVGGTHMMNGIGGSGDFARNAYMSIFVTKSIAKGGAISSVVPMVSHVDHTEHDVDILVTETGLADLRGLAPRERAAVIIANCVHPSYRDALTDYYQRAAARGGHTPHLIEEALSWHNALRERGTMLPQRLEHHHHHH	not soluble
MTVQQKIASGRSSGRTVSQERLNQLSEQTRRAIAQLEPVTLDWVAPVATDMDVAVIGGGQSGVAIAFGLRRAGIRRVQVFDAATPETAGVWNTIARMHTLRAGKGFTGLEQGIPELTFEHWYVALHGDAAFAAMAEIPRTVWLDYLNWYRETAGIDVRWQHRLISIDPRSDAENAPLNLRFELQDKGVIDLSTQTIVLATGLDGLGEPYIPSVLSHTLPPDRLVHTNDLINFSSLRGLSVGVVGAAASAFDAAAVALEHGAASVHQFVRHGDLVEANDQAAARPSADKLFFPEFDDAMRWRLILERRRRSSAPDAAIARACQHPNHYLHFNVAAEQIVALGDDIVARTTTGDIMLDTVIAATGYRQNVYARPELTAAAPHILLWQDRVAAAEGESGWSSHPYLGKGFELQEIEPGSAPWLKRIHVYTFAAIISHGIHAGDIGSAAIALPRLIAAVARSLFIHARADYERLASLGPSIAVDRVAPSPVSGPWEAAPLEHHHHHH	soluble
MTVQTAIFDLIKQAKTIIIHRHQRPDPDAIGSQLGLAAIIKASFPAKRVLTPGKQYHGFDWLGQMDEVTEADYQDALVLILDTANQPRIDGELWNQGKTIVKIDHHPNDDAFGDPQWVDVDASSTSEMIYNWYAPLAAELTLTANAARLLYAGIVGDTGRFLYSATKPSTMRAAAALMEAGADAEAVNRIEDTITLPVARLSAYVYEHLTQLDSGAAYVILTNAILDSFAIGDASTAGVVPLPGRIDTVKCWAIFVQQKEGDFRIRLRSKGPSINGVAKNHDGGGHALASGAKAKDQQEIETVVRELDQVASQYEKEVLEHHHHHH	not soluble
MTVRRTAAARRGRDRKAEIVFPAPGADRFGRGDEPSVAVIGGGIAGLAAATLMAERGARVTLYEKEDAVGGRLSGRRTTLADGSAVTMTRGFHAFFRQYYNLRGLLRRTDPGLDRLTPLPDYPLRHSGGLTDGFARVPRTPPLSAIGFVALSPTFGWRDLAAMDPRAALPLLDVRVPQVYERFDGVTATAFLESVRFPEAAHHLAFEVFSRSFFADPRRLSAAELLLMFHIYFLGSSEGLLFDVPVEPFPQALWNPLGDYLRRLGADVRTGTPVHGILPRADGGADVLTDTGADRHQAVVLALDTAGLRQTVAASPGLGTDTWRDGIAALRTAPPFLVSRLWLDRPVDADRPGFLGTSGYGGLDNVSVLERYEGEAARWAARTGGSVVELHAYAVDPAAEPKEVQDELVDRLHQAYPETREARVVDARHEWRADCPMFEVGSHRRRPTVRTPHPWLTLAGDGIRCDLPVALMERAATTGFLAANALLADRGVRGQVLWTVPRTGRSPVLRAFGAVAGHRSAPLEHHHHHH	not soluble
MTVVIGLTGGIASGKSTVSQMFRELSIPVIDADIIAREVVEKGKPAYNKIVEVFGTEVLQEDGELDRPKLGSVVFYNEEKRLQLNKIVHPAVREEMNRQKEMYIKEGMQAVVLDIPLLFESKLTSLVDRVLVVAVKPHTQLERLMKRNNFSEEEATARIQSQMPLEEKVKNADEVINNDGTIMGTKTQLQAILKKWNIID	not soluble
MTVWDRPEPPHRPVPLDRERIVAAAVALADEGGLTAVSVRKVAARLDAGPMRLYGFISTKDELFDLMVDAVYAEILPEERAGDWREALRVLAHRTRQAALRHPWLADLLGGRPALGPNGLAVAEATLAALDGLADVDTVMRAVETVSSYFTGAVRREIADLRAERATGLSKPEWQREHGPHLTRMLATGRYPALAKAVHDGTHVDAEESFATGLDWVLDAVAVRLARPPGS	not soluble
MTYAVEFDNVSRLYGDVRAVDGVSIAIKDGEFFSMLGPSGSGKTTCLRLIAGFEQLSGGAISIFGKPASNLPPWERDVNTVFQDYALFPHMSILDNVAYGLMVKGVNKKQRHAMAQEALEKVALGFVHQRKPSQLSGGQRQRVAIARALVNEPRVLLLDEPLGALDLKLREQMQLELKKLQQSLGITFIFVTHDQGEALSMSDRVAVFNNGRIEQVDSPRDLYMRPRTPFVAGFVGTSNVFDGLMAEKLCGMTGSFALRPEHIRLNTPGELQANGTIQAVQYQGAATRFELKLNGGEKLLVSQANMTGEELPATLTPGQQVMVSWSRDVMVPLVEER	not soluble
MTYDALHVFDWIKARSGDNPVYIWGHSLGTGVATNLVRRLCERETPPDALILESPFTNIREEAKSHPFSVIYRYFPGFDWFFLDPITSSGIKFANDENMKHISCPLLILHAEDDPVVPFHLGRKLYNIAAPSRSFRDFKVQFIPFHSDLGYRHKYIYKSPELPRILREFLGKSEPERQH	not soluble
MTYFIDVPTMSDLVHDIGVAPFIGELAAALRDDFKRWQAFDKSARVASHSEVGVIELMPVADKSRYAFKYVNGHPANTARNLHTVMAFGVLADVDSGYPVLLSELTIATALRTAATSLMAAQALARPNARKMALIGNGAQSEFQALAFHKHLGIEEIVAYDTDPLATAKLIANLKEYSGLTIRRASSVAEAVKGVDIITTVTADKAYATIITPDMLEPGMHLNAVGGDCPGKTELHADVLRNARVFVEYEPQTRIEGEIQQLPADFPVVDLWRVLRGETEGRQSDSQVTVFDSVGFALEDYTVLRYVLQQAEKRGMGTKIDLVPWVEDDPKDLFSHTRGRAGKRRIRRVA	soluble
MTYHLQGTTGYGLGDSGRETLDRVMARILGTEAALVRGQFVSGTHAIATALFGVLRPGDHFISVTGDPYDTLEEVIGIRGTGQGSLKDFGVSYDSVPLSEEGTIQHSLVSQGIKPNTKMLILQRSRGYAWRNSLPMEQIAAFVAYVREHFPHLIIFVDNCYGELVEKCEPGDVGADLMAGSLIKNLGGSLAPTGGYIAGRQELVEKAACRLTAPGIGGEVGATLSWQLQFFQGLFFSPLEHHHHHH	not soluble
MTYTSLKSPENQDYIYDLTIAHLYGNLMNTYGDNGNILMLKYVAEKLGARVTVDIVSINDTFEQDDYDIVFFGGGQDYEQSIVAKDLPSKKAALADYIANNKVVLAICGGFQLLGQYYVQANGVKIDGLGIMGHYTLNQHQNRFIGDIKIHNDEFNETYYGFENHQGRTFLSGDEKPLGRVVYGNGNNKEDQTEGVHYKNVYGSYFHGPILSRNVNLAYRLVTTALKKKYGSAISLPSYDDILKQEITEEYADLKSKASFNKV	not soluble
MTYVLAESPEFYQDNVTDYTGQISSSDITNIQAAIDDVKASEQKVIFVVFLSSFDGVDPETWTQQALQANGGGNVLIYALAPEERQYGIQGGTQWTDAELDAANNAAFQALSQEDWAGSALALAESVGSSSSSSLEHHHHHH	not soluble
MTYYNVGKIVNTQGLQGELRVLSVTDFADERFKKKSVLALFDDKDNYIMDVEVASHRKHKNFDIVKFKGLYHINDVEKYKGCSLKIAEENLTDLDDGEFYYHEIIGLDVYEGNTLIGQVKEILQPGANDVWVVKRKGKKDLLLPYIPPVVLDVDVAAGRIEVELMEGLDDEDLEHHHHHH	soluble
MVAAAVVGTAAVGTKAATDPRSVGTQVDDGTLEVRVNSALSKDEQIKKEARINVTAYQGKVLLVGQSPNAELSARAKQIAMGVDGANEVYNEIRQGQPIGLGEASNDTWITTKVRSQLLTSDLVKSSNVKVTTENGEVFLMGLVTEREAKAAADIASRVSGVKRVTTAFTFIKLEHHHHHH	not soluble
MVAASKEFVFHHTFKDVSQLEDGDFFKSPEEIHYNAEWFILVIRTKDQLEAYLHCDNEKDDNVAWTVDAEFSLKIASSSGSYAMKFQKGCFDGFGLGWNDFVSWDSLTEDFLYDNSFTIEACVKITKMTGFSKDVLRSFDESEKRFSDVILVVGDEKFYVLKLFLASHSSYFNALFLGKFKEADQSEVTLQNIDPTDFQSLLEVLYGEPAIDDGTIDGVLLLAHMLDVTLAIRKCEEFLIEKSMKSMRELLKMANQYQLENLKVKFYFLKIPEN	not soluble
MVAKIKKFSDSTLSVLNNGERRFYVYCLTDLKKDKILYIGKGCGNRIFEHEWVASRSQDPVSGEIIDRKLKAISKCKKLGRYIISYHLTEVEALAAESALIHFVKSVLGKKLKNKIAGHGPGGISVEELDRRFGFSSLPLNEINPDGLILAIKIHNAFDLDTDEELDYLFDNQDDANLKSRTLGNWVIGKDVASKVKYVIGVHTGLQNAVVSAYEVDGFETMVEETKNGRKQSRYRFRTTSRSEEVLAKLGLQQKCLPELKFGSGGEKAYIRPKTETETEQENIQTTPNPKIKKEKTKSLEHHHHHH	soluble
MVAQARRQGCGERLTTATAVATPATAEQGETTMETVEEFLAHSIKLEQEAALRFGQLADAMDSCGNKEVSKLFRQLADYSRMHQADAQARAGFRDIPQMEPGDFKWPGLESPEAAAIWGTDPFIGRDLALQIALEAETGAFDWYKNVLDTTDNPEIKMLAKEFVEEESGHVAELHRWIALHKAGKPLPMEIVPF	not soluble
MVCDEKRYAIREVAEITGVKPVTLRAWQRRYNLVQPDRTEKGHRLFTDQDIEMIRQIQSWLAKGVAIGKVGALLQSGVSESESIPQPVGQLEECETLLTALAALQRSKAEQIIATVLKEYPLSVMQAQFVQPVTEALERVKGPLRSLQIGLFRTLMLSKLAFILDAENKAAVKGKCLCISLDEAGSLNAWLWALAWAENGHQVTLLEAVDDIRGLLENPGLAQYQILALHAHRALPAAQQSALASLQQQFGEQCVLSNVLQQLQS	not soluble
MVCSRSVSLLFTLLVGVYASTATDPIDSISTQGADILNRAKLTGQTVRQCSCSEQRVCVEEMKLQAKDCTVPCFQKFSSITSRPNDLKKCFDEKDNILEDFLTCFENRVEACVNDQHGPQIQKTDIRGIFKVTEKSIATQTNTFQTMIKPIKHILDATGDFALCVKDCFLEKNKSGFCFDRKGCQPLVAETKARQSFRACTKKMHWKREAGELCECSVQAGVDSRELRQYCAMFKLMRRRAPMRKSRG	not soluble
